{
  "source": "patent US20170304355A1",
  "about": "“COMPOSITIONS AND METHODS OF USE THEREOF” (priority 2014, published 2017)",
  "molecules": {"B1": {"name": "lactoferrin: Lactoferrin, comparator pretreatment at 100 ng/ml (protein, UniProt P02788 20-710, looked up)", "Lactotransferrin": "GRRRSVQWCAVSQPEATKCFQWQRNMRKVRGPPVSCIKRDSPIQCIQAIAENRADAVTLDGGFIYEAGLAPYKLRPVAAEVYGTERQPRTHYYAVAVVKKGGSFQLNELQGLKSCHTGLRRTAGWNVPIGTLRPFLNWTGPPEPIEAAVARFFSASCVPGADKGQFPNLCRLCAGTGENKCAFSSQEPYFSYSGAFKCLRDGAGDVAFIRESTVFEDLSDEAERDEYELLCPDNTRKPVDKFKDCHLARVPSHAVVARSVNGKEDAIWNLLRQAQEKFGKDKSPKFQLFGSPSGQKDLLFKDSAIGFSRVPPRIDSGLYLGSGYFTAIQNLRKSEEEVAARRARVVWCAVGEQELRKCNQWSGLSEGSVTCSSASTTEDCIALVLKGEADAMSLDGGYVYTAGKCGLVPVLAENYKSQQSSDPDPNCVDRPVEGYLAVAVVRRSDTSLTWNSVKGKKSCHTAVDRTAGWNIPMGLLFNQTGSCKFDEYFSQSCAPGSDPRSNLCALCIGDEQGENKCVPNSNERYYGYTGAFRCLAENAGDVAFVKDVTVLQNTDGNNNEAWAKDLKLADFALLCLDGKRKPVTEARSCHLAMAPNHAVVSRMDKVERLKQVLLHQQAKFGRNGSDCPDKFCLFQSETKNLLFNDNTECLARLHGKTTYEKYLGPQYVAGITNLKKCSTSPLLEACEFLRK"}},
  "test_system": "IL-8",
  "experiment": "LPS stimulated IL-8 ELISA in U937 macrophages, PAAG and lactoferrin",
  "type": "cell-based, human",
  "details": "100 ng/ml lactoferrin pretreatment 1 hour, LPS stimulation; at 24 hours; FIG. 31",
  "data": [
    {"molecule": "B1", "values": [
      {"measurement": "IL-8 secretion suppression", "result": "IL-8 secretion suppression"}
    ]}
  ]
}
